Consider 3 molecules from patent publication US20240252689A1, “POLY-ADP RIBOSE (PAR) TRACKER OPTIMIZED SPLIT-PROTEIN REASSEMBLY PAR DETECTION REAGENTS” (THE BOARD OF REGENTS OF THE UNIVERSITY OF TEXAS SYSTEM, priority 2021, published 2024).

One test has as its target PARylated PARP-1 (Homo sapiens, UniProt P09874). Description: In vitro ADP-ribosylation assay with ARBD-ddGFP pairs, recombinant PARP-1. The settings on record: ARBD fused to ddGFP-A/B, recombinant proteins. Format: biochemical. An excerpt: Dimerization-dependent GFP is a genetically encoded sensor that was initially developed to study protein interactions. In this system, a pair of a quenched GFP (ddGFPA) and a non-fluorogenic GFP (ddGFPB) form a heterodimer that can result in improved fluorescence. In this example, a ddGFP-based fluorescence sensor (fluorescent PAR-Trackers or PAR-T) was designed to allow for live cell imaging, with high signal-noise ratio. To achieve this, the various ADPR reader domains (ARBDs) were fused to ddGFP-A/B and purified as recombinant proteins (FIG. 1A, FIG. 1B, FIG. 6A). In vitro ADP-ribosylation assays were performed using recombinant PARP-1 (to detect PAR) and PARP-3 (to detect MAR) specifically (FIG. 6B and FIG. 6C). […] These reagents recognized PARylated-PARP-1 but not MARylated PARP-3, or the precursors of ADPR (FIG. 1C). Accordingly, the utility of these reagents was further tested in in vitro PARP-1 PARylation reactions with increasing concentrations of NAD+(FIGS. 6F and 6G) and increasing time of reaction (FIG. 1D and FIG. 1E). Similarly, degradation of PAR chains by ARH3 was detected in a time (FIG. 1F and FIG. 1G) and dose (FIG. 6H) dependent way. Further, in vitro reactions were performed by incubating the recombinant PAR-T sensors and lysates from Hela cells treated with H2O2 to induce DNA damage and activate PARP-1.

In another test the test system is PARP-1 activation. Description: Live cell imaging with ddGFP PAR-T after H2O2-mediated PARP-1 activation. It counts as cell-based. Particulars: cells treated with H2O2, compared to ddGFP alone. The procedure:
Cells were treated with various inhibitors as described herein. For inhibition of nuclear PARPs, cells were treated with PJ-34 ([…]; Enzo, ALX-270) or Olaparib (20 µM; MedChem Express, HY-10162) for 2 hours. For inhibition of PARG, cells were treated with PDD 00017273 (20 µM; MedChem Express, HY-108360) for 2 hours. For UV-induced DNA damage, the cells were harvested 15 minutes after treatment with 50 mJ/cm2 UV irradiation.
Having confirmed the specificity of the PAR-T sensors, their utility in live cell imaging was then tested. PAR-T sensors were expressed in Hela cells in a doxycycline-dependent manner and live cell imaging performed after subjecting the cells to H2O2-mediated PARP-1 activation (FIG. 7A). This PAR-T construct also expresses mCherry with nuclear localization signal (NLS) to illuminate the nuclei and act as a control for variability in expression of the constructs (FIG. 7A). […] Using the WWE-based ddGFP PAR-T construct, accumulation of PAR after H2O2-treatment was detected in real time.
Next, a set of assays was performed to compare the performance of the PAR-T sensors to conventional PAR detection reagents (WWE-Fc and PAR antibody) in a variety of assays. […]

Sequence of PARylated PARP-1 (P09874 whole entry, the tested form may be a part): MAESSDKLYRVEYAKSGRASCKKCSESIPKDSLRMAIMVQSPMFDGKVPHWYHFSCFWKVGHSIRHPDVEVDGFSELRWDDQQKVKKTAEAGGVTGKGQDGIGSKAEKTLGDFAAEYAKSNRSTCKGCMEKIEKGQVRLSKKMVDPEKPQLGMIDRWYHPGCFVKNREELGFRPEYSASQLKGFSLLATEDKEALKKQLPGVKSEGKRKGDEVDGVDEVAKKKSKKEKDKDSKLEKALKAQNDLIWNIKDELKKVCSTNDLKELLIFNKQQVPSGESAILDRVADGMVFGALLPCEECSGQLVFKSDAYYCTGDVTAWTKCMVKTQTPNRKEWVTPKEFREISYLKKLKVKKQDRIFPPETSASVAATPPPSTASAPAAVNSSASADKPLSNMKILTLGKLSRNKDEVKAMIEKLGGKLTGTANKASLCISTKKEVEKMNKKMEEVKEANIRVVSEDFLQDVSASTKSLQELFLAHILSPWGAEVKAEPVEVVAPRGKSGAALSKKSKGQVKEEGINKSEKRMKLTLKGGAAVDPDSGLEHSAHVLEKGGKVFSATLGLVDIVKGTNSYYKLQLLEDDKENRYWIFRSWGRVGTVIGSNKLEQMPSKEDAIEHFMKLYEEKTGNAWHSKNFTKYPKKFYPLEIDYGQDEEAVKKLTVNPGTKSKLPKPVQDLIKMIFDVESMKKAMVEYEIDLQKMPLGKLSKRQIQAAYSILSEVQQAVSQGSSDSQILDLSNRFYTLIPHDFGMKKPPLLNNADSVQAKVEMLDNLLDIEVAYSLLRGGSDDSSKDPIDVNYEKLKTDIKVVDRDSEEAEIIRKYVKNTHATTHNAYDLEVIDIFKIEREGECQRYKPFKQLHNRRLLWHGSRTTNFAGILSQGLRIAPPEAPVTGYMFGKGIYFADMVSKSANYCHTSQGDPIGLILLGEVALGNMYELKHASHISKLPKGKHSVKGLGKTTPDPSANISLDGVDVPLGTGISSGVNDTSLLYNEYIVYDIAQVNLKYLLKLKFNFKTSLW

B1: macrodomain from AF1521: macrodomain from AF1521 fused to ddGFP-A/B, recombinant ARBD-ddGFP pair (protein, listed as Archaeoglobus fulgidus)
chain: MERRTLIMEVLFEAKVGDITLKLAQGDITQYPAKAIVNAANKRLEHGGGVAYAIAKACAGDAGLYTEISKKAMREQFGRDYIDHGEVVVTPAMNLEERGIKYVFHTVGPICSGMWSEELKEKLYKAFLGPLEKAEEMGVESIAFPAVSAGIYGCDLEKVVETFLEAVKNFKGSAVKEVALVIYDRKSAEVALKVFERSL
As to B1, the “recognizing PARylated PARP-1 (fluorescence)” value is listed as “performed well” with PARylated PARP-1 and “worked better” in the test with PARylated PARP-1 (listed as macrodomain).

B2: WWE-macrodomain combination sensor: ddGFP sensor pair combining WWE domain from RNF146 and macrodomain from AF1521 (protein)
chain 1: MGNGEYAWYYEGRNGWWQYDERTSRELEDAFSKGKKNTEMLIAGFLYVADLENMVQYRRNEHGRRRKIKRDIIDIPKKGVAGLR
chain 2: MERRTLIMEVLFEAKVGDITLKLAQGDITQYPAKAIVNAANKRLEHGGGVAYAIAKACAGDAGLYTEISKKAMREQFGRDYIDHGEVVVTPAMNLEERGIKYVFHTVGPICSGMWSEELKEKLYKAFLGPLEKAEEMGVESIAFPAVSAGIYGCDLEKVVETFLEAVKNFKGSAVKEVALVIYDRKSAEVALKVFERSL
modifications: left off: small tags and cut ends
notes: ddGFP sensor pair combining WWE domain from RNF146 and macrodomain from AF1521
In the case of B2, in the test with PARylated PARP-1, the “recognizing PARylated PARP-1 (fluorescence)” value is on record as “able to detect PARylation in vitro”. For the same molecule, the “detection of PARP-1 activation / PARylation in live cell imaging” value in the test on PARP-1 activation is “failed to recognize PARylation in cells”.

B3: PAR-T ddGFP: WWE domain from RNF146 fused to dimerization-dependent GFP monomers ddGFP-A and ddGFP-B (protein)
chain 1: MGHHHHHHHHHHSSGHIDDDDKHMLEGNGEYAWYYEGRNGWWQYDERTSRELEDAFSKGKKNTEMLIAGFLYVADLENMVQYRRNEHGRRRKIKRDIIDIPKKGVAGLRLEFSTGHGTGSTGSGSSGTASSESTGSSMASKSEEVIKEFMRFKVRLEGSMNGHEFEIEGEGEGRPYEGTQTAKLKVTKGGPLPFAWDILSPLIMYGSKMYVKHPADVPDYMKLSFPEGFKWERVMHFEDGGLVTATQDSSLQDGTLIYKVKMRGTNFPPDGPVMQKKTLGWDYATERLYPEEGVLKGELLGRLKLKDGGLNLVESKTIYMAKKPVQLPGYYFVDTKLDITSHNEDYTIVEQYERSEGRHHLGH
chain 2: MGHHHHHHHHHHSSGHIDDDDKHMLEGNGEYAWYYEGRNGWWQYDERTSRELEDAFSKGKKNTEMLIAGFLYVADLENMVQYRRNEHGRRRKIKRDIIDIPKKGVAGLRLEFSTGHGTGSTGSGSSGTASSESTGSSTIKEFMRFKVRMEGSMNGHEFEIEGEGEGRPYEGTQTAKLKVTKGGPLPFAWDILSPQIMYGSKAYVRHPADIPDYKKLPFPEGFKWERVMNFEDGGLVTVTQDSSLQDGTLICKVKIRGTNFPPDGPVMQKKTMGWEASTEMLYPKDGVLKGHSYQALKLKDGGHYLVEFETIYMAKKPVQLPGDYCVDTKLDITSHNEDYTIVEQYGRSEGRHRLGMDERYK
Take B3: the “recognizing PARylated PARP-1 (fluorescence)” value with PARylated PARP-1 (listed as WWE domain) is recorded as “worked better”; in the test with PARylated PARP-1 (listed as WWE domain from RNF146) it was “performed well”. Moreover, the “detection of PARP-1 activation / PARylation in live cell imaging” value with PARP-1 activation is given as “detected PARP-1 activation”.
